Test results taken from the nanobody polyreactivity screen of Harvey et al. (2022).

Assay: yeast display, Sf9 membrane polyspecificity reagent, FACS + sequencing; frameworks hold sequencing errors
In short: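 In a synthetic yeast display library (Saccharomyces cerevisiae BJ5465), nanobody expression was induced with galactose for 36–48 hours. FACS gates were set low and high (top ~1%) using anti-HA fluorescence for expression and streptavidin fluorescence for binding of the Sf9 membrane reagent. Each polyreactivity label is drawn from the gate of origin.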

With “QVQLVESGGGLVQAGGSLRLSCAASGFTFYWYAMGWYRQAPGKEREFVAAIDQSGGSTYYADSVKGRFTISRDNAKNTVYLQMNSLKPEDTAVYYCAAAYLRYVSTQYHYDYWGQGTQVTVSS” as the sequence, how does the “polyreactivity (PSR sort gate)” value read?
The value was “low polyreactivity”.

With “QVQLVESGGGLVQAGGSLRLSCAASGFTFYWYAMGWYRQAPGKEREFVAAIDQSGGSTYYADSVKGRFTISRDNAKNTVYLQMNSLKPEDTAVYYCAARYILWDGDSWTEFDYWGQGTQVTVSS” as the sequence, how does the “polyreactivity (PSR sort gate)” value read?
The value was “low polyreactivity”.

With “QVQLVESGGGLVQAGGSLRLSCAASGFTFYWYAMGWYRQAPGKERELVAAISRGGSTNYADSVKGRFTISRDNAKNTVYLQMNSLKPEDTAVYYCARDNPYRWFYRYVGEGDYWGQGTQVTVSS” as the sequence, how does the “polyreactivity (PSR sort gate)” value read?
Its value is “low polyreactivity”.

Which “polyreactivity (PSR sort gate)” value does the source give for “QVQLVESGGGLVQAGGSLRLSCAASGFTFYWYAMGWYRQAPGKERELVAAITSGGGTTYYADSVKGRFTISRDNAKNTVYLQMNSLKPEDTAVYYCAADSYTYPWIERDYWGQGTQVTVSS” here?
The value was “high polyreactivity”.

With “QVQLVESGGGLVQAGGSLRLSCAASGFTFYYNAMGWYRQAPGKERELVAAISASGGRTYYADSVKGRFTISRDNAKNTVYLQINSLKPEDTAVYYCAYRVYPHYGWYDYWGQGTQVTVSS” as the sequence, how does the “polyreactivity (PSR sort gate)” value read?
The value was “high polyreactivity”.

For “QVQLVESGGGLVQAGGSLRLSCAASGFTFYYNAMGWYRQAPGKERELVAAISSRGTSTYYADSVKGRFTISRDNAKNTVYLQMNSLKPEDTAVYYCNTDRIGRYYQSYGGGHMDYWGQGTQVTVSS”, which “polyreactivity (PSR sort gate)” value is on record?
Its value is “high polyreactivity”.

Which “polyreactivity (PSR sort gate)” value does the source give for “QVQLVESGGGLVQAGGSLRLSCAASGFTFYYNAMGWYRQAPGKERELVAAISTGGSTYYADSVKGRFTISRDNAKNTVYLQMNSLKPEDTAVYYCAAKTYGRRWSYYYWGQGTQVTVSS” here?
The value was “high polyreactivity”.

Which “polyreactivity (PSR sort gate)” value does the source give for “QVQLVESGGGLVQAGGSLRLSCAASGFTFYYNAMGWYRQAPGKERELVAAISTRGGNTYYADSVKGRFTISRDNAKNTVYLQMNSLKPEDTAVYYCARKIRREGRYDYWGQGTQVTVSS” here?
Its value is “high polyreactivity”.

Which “polyreactivity (PSR sort gate)” value does the source give for “QVQLVESGGGLVQAGGSLRLSCAASGFTFYYNAMGWYRQAPGKERELVAAITWDGGRTYYADSVKGRYTISRDNAKNTVYLQMNSLKTVDTAVYYCAAVEYSEHWDGYSWGEYYYWGQGTQVTVSS” here?
The value was “high polyreactivity”.

Which “polyreactivity (PSR sort gate)” value does the source give for “QVQLVESGGGLVQAGGSLRLSCAASGFTFYYNAMGWYRQAPGKERELVAAMSGRGGSTHYADSVKGRFTISRDNAKNTVYLQMNSLKPEDTAVYYCNKVVRGSPEFDYWGQGTQVTVSS” here?
The value was “high polyreactivity”.

Which “polyreactivity (PSR sort gate)” value does the source give for “QVQLVESGGGLVQAGGSLRLSCAASGFTFYYNARGWYRQAPGKERELVASITRSGGRTYYADSVKGRFTISRDNAKNTVYLQMNSLKPEDTAVYYCAAANHKGSRMDYWGQGTQVTVSS” here?
The value was “high polyreactivity”.

With “QVQLVESGGGLVQAGGSLRLSCAASGFTFYYYAMGGYSQAPGKERELVAAISSTGGSTYYADSVKGRFTISRDNAKNTVYLQMNSLKPEDTAVYYCNAAGYRYPGDYDFWGQGTQVTVSS” as the sequence, how does the “polyreactivity (PSR sort gate)” value read?
Its value is “high polyreactivity”.

Which “polyreactivity (PSR sort gate)” value does the source give for “QVQLVESGGGLVQAGGSLRLSCAASGFTFYYYAMGWYRQAPGKERELVAAIDTSDGSTYYADSVKGRFTISRDNAKNTVYLQMNSLKPEDTAVYYCAAEVDCVPFLLDYWGQGTQVTVSS” here?
Its value is “low polyreactivity”.

Which “polyreactivity (PSR sort gate)” value does the source give for “QVQLVESGGGLVQAGGSLRLSCAASGFTFYYYAMGWYRQAPGKERELVAAISRSGGSTYYADSVKGRFTISRDNAKNTVYLQMNSLKQEDTAVYYCAARRLVGAERPGYDDWGQGTQVTVSS” here?
Its value is “high polyreactivity”.

For “QVQLVESGGGLVQAGGSLRLSCAASGFTFYYYAMGWYRQAPGKERELVAAISSGGSTNYADSVKGRFTISRDNAKNTVYLPRNSLKPEDTAVYYCAAPQPYWWAYRYDYWGQGTQVTVSS”, which “polyreactivity (PSR sort gate)” value is on record?
The value was “low polyreactivity”.

With “QVQLVESGGGLVQAGGSLRLSCAASGFTFYYYAMGWYRQAPGKERELVAGISKSGGITYYADSVKGRFTISLDNAKNTVYLQMNSLKPEDTAVYYCAAAEWYQFFIYRYTYEYWGQGTQVTVSS” as the sequence, how does the “polyreactivity (PSR sort gate)” value read?
Its value is “low polyreactivity”.

With “QVQLVESGGGLVQAGGSLRLSCAASGFTFYYYAMGWYRQAPGKERELVASISWRGGSTYYADSVKGRFTISRDNAKNTVYLQMNSLKPEDTAVFYCAAQKRGSPGYRRDYWGQGTQVTVSS” as the sequence, how does the “polyreactivity (PSR sort gate)” value read?
The value was “high polyreactivity”.

With “QVQLVESGGGLVQAGGSLRLSCAASGFTFYYYAMGWYRQAPGKERELVATIRWSGGSTYYADSVKGRFTISRDNAKNTVYLQMNSLKPEDTAVYYCNATPPQYVKYPSYKYDYWGQGTQVTVSS” as the sequence, how does the “polyreactivity (PSR sort gate)” value read?
Its value is “low polyreactivity”.

With “QVQLVESGGGLVQAGGSLRLSCAASGFTIFGYAMGWYRQAPGKERELVAAISTIDGDTYYADSVKGRFTISRDNAKNTVYLQMNSLKPEDTAVYYSAADDYIDGDDYWGQGTQVTVSS” as the sequence, how does the “polyreactivity (PSR sort gate)” value read?
Its value is “low polyreactivity”.

With “QVQLVESGGGLVQAGGSLRLSCAASGFTIHGNAMGWYRPAPGKERELVAGISSSGASTYYADSVKGRFTISRDNAKNTVFLQMNSLKPEDTAVYYCAVRYYGRYLRYNYWGQGTQVTVSS” as the sequence, how does the “polyreactivity (PSR sort gate)” value read?
Its value is “high polyreactivity”.

For “QVQLVESGGGLVQAGGSLRLSCAASGFTIIIYAMGWYRQAPGKERQLVAAINTSGTRTYYADSVKGRFTISRDNAKNTVYLQMNSLKPEDTAVYYCAARSGYKGEHGDRDDYWGQGTQVTVSS”, which “polyreactivity (PSR sort gate)” value is on record?
Its value is “high polyreactivity”.

For “QVQLVESGGGLVQAGGSLRLSCAASGFTIIRYAMGWYRQAPGKERDLVAAITTSGSGTYYAHSVKGRFTISRDNAKNTVYLQMNSLKPEDTAVDYCATDYRYRSYSRGAHDYWGQGTQVTVSS”, which “polyreactivity (PSR sort gate)” value is on record?
The value was “low polyreactivity”.

For “QVQLVESGGGLVQAGGSLRLSCAASGFTIQFYTMGWYRQAPGKERELVAAISYNGDSTYYADSVKGRFTISRDNAKNTVYLQMNSLKPEDTAVYYCNTDLGTIYYYGYDYWGQGTQVTVSS”, which “polyreactivity (PSR sort gate)” value is on record?
Its value is “high polyreactivity”.

With “QVQLVESGGGLVQAGGSLRLSCAASGFTIQRYAMGWSRQAPGKERELVAAITSGGSTYYADSVKGRFTISRDNAKNTVYLQMNSLKPEDTAVYYCAAYYRGRAYISYGYWGQGTQVTVSS” as the sequence, how does the “polyreactivity (PSR sort gate)” value read?
The value was “high polyreactivity”.

Which “polyreactivity (PSR sort gate)” value does the source give for “QVQLVESGGGLVQAGGSLRLSCAASGFTIRQYAMGWYRQAPGKERELVAAISGRGGTTYYADSVKGRFTISRDNAKNTVYLQMNSLKPEDTAVYYCAARTFDRGKIPPPYDYWGQGTQVTVSS” here?
Its value is “high polyreactivity”.

For “QVQLVESGGGLVQAGGSLRLSCAASGFTIRRYAMGWYRQAPGKERALVAAITTGGSTYYADSVKGRFTISRDNAKNTVYLQMYSLKPEDTAVYYCATDTYPYPLYYSPGAYGYWGQGTQVTVSS”, which “polyreactivity (PSR sort gate)” value is on record?
The value was “high polyreactivity”.

Which “polyreactivity (PSR sort gate)” value does the source give for “QVQLVESGGGLVQAGGSLRLSCAASGFTIRRYAMGWYRQAPGKESELVAAITTGGSTYYADSVKGRFTISRDNAKNTVYLQMNSLKPEDTAVYYCATDTYPYPLYYSPGAYGYWGQGTQVTVSS” here?
Its value is “high polyreactivity”.

With “QVQLVESGGGLVQAGGSLRLSCAASGFTIRSYVMGWYRQAPGKEREFVAAISYRGGGTNYADSVKGRFTISRDNAKNTVYLQMNSLKPEDSAVYYCNAYIVSNEGDYWGQGTQVTVSS” as the sequence, how does the “polyreactivity (PSR sort gate)” value read?
The value was “high polyreactivity”.

With “QVQLVESGGGLVQAGGSLRLSCAASGFTIRSYVMGWYRQAPGKERELVAAIRRSGGSTYYADSVKGRFTNSRDNAKNTVYLQMNSLKPEDTAVYYCNAPHHRYDWGQGTQVTVSS” as the sequence, how does the “polyreactivity (PSR sort gate)” value read?
Its value is “high polyreactivity”.

Which “polyreactivity (PSR sort gate)” value does the source give for “QVQLVESGGGLVQAGGSLRLSCAASGFTISPYAMGWYRQAPGKERELVAVISKSSTRTYYADSVKGRFTISRDTAKNTVYLQMNSLKPEDTAVYYCNAGWNFVSGYYYWGQGTQVTVSS” here?
Its value is “high polyreactivity”.

With “QVQLVESGGGLVQAGGSLRLSCAASGFTISSYVMGWYRQAAGKEREVVAAISSSGARTYYADSVKGRFTISRDNAKNTVYLQMNSLKPEDTAVYYCAADNSPRPYDYWGQGTQVTVSS” as the sequence, how does the “polyreactivity (PSR sort gate)” value read?
The value was “high polyreactivity”.

For “QVQLVESGGGLVQAGGSLRLSCAASGFTITKYAMGWYRQAPGKERELVAAISSSGYSTYYADSVKGRFTISRDNAKNTVYFQMNSLKPEDTAVYYCAARGYYSSGVDYCGQGTQVTVSS”, which “polyreactivity (PSR sort gate)” value is on record?
The value was “high polyreactivity”.

Which “polyreactivity (PSR sort gate)” value does the source give for “QVQLVESGGGLVQAGGSLRLSCAASGFTIVPYAMGWYRQAPGKERELVAAISRRGSRTYYADSVKGRFTISRDNAKNTVYLQMNSLKPEDTAVYYCAAKLSAVKAAYDYWGQGTQVTVSS” here?
The value was “high polyreactivity”.

Which “polyreactivity (PSR sort gate)” value does the source give for “QVQLVESGGGLVQAGGSLRLSCAASGFTIVYYSMGWYRQAPGKERELVATISSGGGTNYADSVKGRFTISRDNAKNTVYLQMNSLTPEDTAVYYCAAEYYTGYFKYDYWGQGTQVTVSS” here?
The value was “high polyreactivity”.

Which “polyreactivity (PSR sort gate)” value does the source give for “QVQLVESGGGLVQAGGSLRLSCAASGFTIWQNAMGWYRQAPGKERELVAGIRLSGGSTYADSVKGRFTISRDNAKNTVYLQMNSLKPEDTAVYYCAARIAGYYRYRYSYGYWGQGTQVTVSS” here?
The value was “high polyreactivity”.

With “QVQLVESGGGLVQAGGSLRLSCAASGFTIWRNDMGWYRQAPGKERELVAVISTAGRTYYADSVKGRFTISRDNAKITVYLQMNSLKPEDTAVYYCAKRSYSKDQPRYGYWGQGTQVTVSS” as the sequence, how does the “polyreactivity (PSR sort gate)” value read?
Its value is “low polyreactivity”.

With “QVQLVESGGGLVQAGGSLRLSCAASGFTIYFKAMGWYRQAPGKERELVAAISFSGGGTYYADSVKGRFTISRDNAKNTFYLQMNSLKPEDTAVYYCAADWYDWVSTYDYWGQGTQVTVSS” as the sequence, how does the “polyreactivity (PSR sort gate)” value read?
The value was “low polyreactivity”.

With “QVQLVESGGGLVQAGGSLRLSCAASGFTKAYAMGWSRQAPGKERELVAVISDRAGSTYYADSVKGRFTISRDNPKNTVYLQMNSLKPEDTAVYYCAADGIGYSYHGRPYIYEYWGQGTQVTVSS” as the sequence, how does the “polyreactivity (PSR sort gate)” value read?
The value was “low polyreactivity”.

For “QVQLVESGGGLVQAGGSLRLSCAASGFTLDDYAMGWYRQAPGKEREWVAAITSGGTYADSVKGRFTISRDNAKNTVYLQMNSLKPEDTAVYYCNAGNNVVVDYDYWGQGTQVTVSS”, which “polyreactivity (PSR sort gate)” value is on record?
Its value is “low polyreactivity”.

For “QVQLVESGGGLVQAGGSLRLSCAASGFTLDWYVMGWYRQAPGKEREFVASIRYSGGSTYYADSVKGRFTISRDNAKNTVYLQMNRLKTEDTAVYYCAARTVTLSYLYYYWGQGTQVTVSS”, which “polyreactivity (PSR sort gate)” value is on record?
Its value is “high polyreactivity”.
